Target: human APJ receptor (human) (UniProt P35414)
Test: cell-based or functional assay

Sequence of human APJ receptor (human) (P35414 whole entry): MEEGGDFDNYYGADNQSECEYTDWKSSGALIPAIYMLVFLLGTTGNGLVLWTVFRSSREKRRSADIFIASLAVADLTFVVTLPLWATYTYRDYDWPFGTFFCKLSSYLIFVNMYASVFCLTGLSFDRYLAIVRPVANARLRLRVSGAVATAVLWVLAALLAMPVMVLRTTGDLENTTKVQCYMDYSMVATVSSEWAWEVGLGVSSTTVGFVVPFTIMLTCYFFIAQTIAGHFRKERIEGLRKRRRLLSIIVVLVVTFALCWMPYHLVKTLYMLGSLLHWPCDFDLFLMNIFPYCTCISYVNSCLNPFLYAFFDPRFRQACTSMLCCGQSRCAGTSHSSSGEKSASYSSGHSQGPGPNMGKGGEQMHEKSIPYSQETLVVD

Substance | hAPJ Ca2+ Flux EC50
Example 1: pE-R-P-R-C*-S-H-K-G-P-Nle-C*-F-OH (peptide) | 0.74 nM
Example 2: pE-R-P-R-hC*-S-H-K-G-P-(D-Nle)-C*-y-OH (peptide) | 154 nM
Example 3: pE-R-P-R-L-S-C*-K-G-P-Nle-C*-F-OH (peptide) | 128 nM
Example 4: pE-R-P-R-L-S-C*-K-G-P-Nle-(D-hC)*-F-OH (peptide) | 406 nM
Example 5: pE-R-P-R-L-S-c*-K-G-P-Nle-(D-hC)*-F-OH (peptide) | 981 nM
Example 6: pE-R-P-R-L-S-hC*-K-G-P-Nle-(D-hC)*-F-OH (peptide) | 92.8 nM
Example 7: pE-R-P-R-L-S-(D-hC)*-K-G-P-Nle-(D-hC)*-F-OH (peptide) | 781 nM
Example 8: pE-R-P-R-L-S-(D-hC)*-K-G-P-Nle-C*-F-OH (peptide) | 613 nM
Example 9: pE-R-P-R-L-S-(D-hC)*-K-G-P-Nle-hC*-F-OH (peptide) | 1030 nM
Example 10: pE-R-P-R-L-S-(D-hC)*-K-G-P-Nle-C*-OH (peptide) | 976 nM
Example 11: pE-R-P-R-L-S-C*-K-G-P-Nle-c*-F-OH (peptide) | 113 nM
Example 12: pE-R-P-R-L-S-C*-K-G-P-Nle-hC*-F-OH (peptide) | 81.7 nM
Example 13: pE-R-P-R-L-S-hC*-K-G-P-Nle-hC*-F-OH (peptide) | 760 nM
Example 14: pE-R-P-R-L-S-H-K-C*-P-Nle-C*-F-OH (peptide) | 0.81 nM
Example 15: pE-R-P-R-L-S-Aib-K-C*-P-Nle-C*-NH(Phenethyl) (peptide) | 4 nM
Example 16: pE-R-P-R-L-S-a-K-C*-P-Nle-C*-f-OH (peptide) | 33.2 nM
Example 17: pE-R-P-R-L-a-H-K-C*-P-Nle-C*-f-OH (peptide) | 1.9 nM
Example 18: Isonipecotoyl-R-P-R-L-a-H-K-C*-P-Nle-C*-f-OH (peptide) | 2.3 nM
Example 19: pE-R-P-R-L-a-Aib-K-C*-P-Nle-C*-f-OH (peptide) | 72.3 nM
Example 20: pE-R-P-R-L-S-Aib-K-C*-P-Nle-C*-f-OH (peptide) | 6.1 nM
Example 21: pE-R-P-R-L-s-H-K-C*-P-Nle-C*-f-OH (peptide) | 9.7 nM

— patent US20160145309A1
